Where two headings read alike, the source gives them in different places.
T1: human ICOS (human, UniProt Q9Y6W8 21-199)
T1 construct: whole, on cells
T1 sequence (looked up): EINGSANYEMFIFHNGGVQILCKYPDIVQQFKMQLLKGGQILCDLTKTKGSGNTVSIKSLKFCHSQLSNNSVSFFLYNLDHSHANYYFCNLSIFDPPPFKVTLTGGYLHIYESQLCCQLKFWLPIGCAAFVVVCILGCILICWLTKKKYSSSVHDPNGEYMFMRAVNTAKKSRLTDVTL

B1: ICOSL ECD with N52H/N57Y/Q100R/F172S, Fc fusion with (G4S)2 linker (Fc fusion)
chain: DTQEKEVRAMVGSDVELSCACPEGSRFDLNDVYVYWQTSESKTVVTYHIPQHSSLEYVDSRYRNRALMSPAGMLRGDFSLRLFNVTPQDEQKFHCLVLSRSLGFQEVLSVEVTLHVAANFSVPVVSAPHSPSQDELTFTCTSINGYPRPNVYWINKTDNSLLDQALQNDTVSLNMRGLYDVVSVLRIARTPSVNIGCCIENVLLQQNLTVGSQTGNDIGERDKITENPVSTGEKNAATGGGGSGGGGSEPKSSDKTHTCPPCPAPEAEGAPSVFLFPPKPKDTLMISRTPEVTCVVVDVSHEDPEVKFNWYVDGVEVHNAKTKPREEQYNSTYRVVSVLTVLHQDWLNGKEYKCKVSNKALPAPIEKTISKAKGQPREPQVYTLPPSREEMTKNQVSLTCLVKGFYPSDIAVEWESNGQPENNYKTTPPVLDSDGSFFLYSKLTVDKSRWQQGNVFSCSVMHEALHNHYTQKSLSLSPG
notes: also called ICOSCL ECD with N52H/N57Y/Q100R/F1725
B2: ICOSL IgV with N52H/N57Y/Q100R, Fc fusion with (G4S)2 linker (Fc fusion)
chain: DTQEKEVRAMVGSDVELSCACPEGSRFDLNDVYVYWQTSESKTVVTYHIPQHSSLEYVDSRYRNRALMSPAGMLRGDFSLRLFNVTPQDEQKFHCLVLSRSLGFQEVLSVEVTLHVAANFSVGGGGSGGGGSEPKSSDKTHTCPPCPAPEAEGAPSVFLFPPKPKDTLMISRTPEVTCVVVDVSHEDPEVKFNWYVDGVEVHNAKTKPREEQYNSTYRVVSVLTVLHQDWLNGKEYKCKVSNKALPAPIEKTISKAKGQPREPQVYTLPPSREEMTKNQVSLTCLVKGFYPSDIAVEWESNGQPENNYKTTPPVLDSDGSFFLYSKLTVDKSRWQQGNVFSCSVMHEALHNHYTQKSLSLSPG
notes: also called ICOSCL IgV with N52H/N57Y/Q100R
B3: variant ICOSL ECD-Fc N52H/N57Y/Q100R/F172S, G4S linker, Fc C220S/L234A/L235E/G237A (SEQ ID NO: 40) (Fc fusion)
chain: DTQEKEVRAMVGSDVELSCACPEGSRFDLNDVYVYWQTSESKTVVTYHIPQHSSLEYVDSRYRNRALMSPAGMLRGDFSLRLFNVTPQDEQKFHCLVLSRSLGFQEVLSVEVTLHVAANFSVPVVSAPHSPSQDELTFTCTSINGYPRPNVYWINKTDNSLLDQALQNDTVSLNMRGLYDVVSVLRIARTPSVNIGCCIENVLLQQNLTVGSQTGNDIGERDKITENPVSTGEKNAATGGGGSEPKSSDKTHTCPPCPAPEAEGAPSVFLFPPKPKDTLMISRTPEVTCVVVDVSHEDPEVKFNWYVDGVEVHNAKTKPREEQYNSTYRVVSVLTVLHQDWLNGKEYKCKVSNKALPAPIEKTISKAKGQPREPQVYTLPPSREEMTKNQVSLTCLVKGFYPSDIAVEWESNGQPENNYKTTPPVLDSDGSFFLYSKLTVDKSRWQQGNVFSCSVMHEALHNHYTQKSLSLSPGK
notes: Made in 293 cells; Fc or allotypes thereof
B4: variant ICOSL ECD-Fc N52H/N57Y/Q100P, G4S linker, Fc C220S/L234A/L235E/G237A (SEQ ID NO: 40) (Fc fusion)
chain: DTQEKEVRAMVGSDVELSCACPEGSRFDLNDVYVYWQTSESKTVVTYHIPQHSSLEYVDSRYRNRALMSPAGMLRGDFSLRLFNVTPQDEQKFHCLVLSPSLGFQEVLSVEVTLHVAANFSVPVVSAPHSPSQDELTFTCTSINGYPRPNVYWINKTDNSLLDQALQNDTVFLNMRGLYDVVSVLRIARTPSVNIGCCIENVLLQQNLTVGSQTGNDIGERDKITENPVSTGEKNAATGGGGSEPKSSDKTHTCPPCPAPEAEGAPSVFLFPPKPKDTLMISRTPEVTCVVVDVSHEDPEVKFNWYVDGVEVHNAKTKPREEQYNSTYRVVSVLTVLHQDWLNGKEYKCKVSNKALPAPIEKTISKAKGQPREPQVYTLPPSREEMTKNQVSLTCLVKGFYPSDIAVEWESNGQPENNYKTTPPVLDSDGSFFLYSKLTVDKSRWQQGNVFSCSVMHEALHNHYTQKSLSLSPGK
notes: as for B3
B5: ICOSL ECD Truncation #7 with N52H/N57Y/Q100R/F172S, Fc fusion (Fc fusion)
chain: DTQEKEVRAMVGSDVELSCACPEGSRFDLNDVYVYWQTSESKTVVTYHIPQHSSLEYVDSRYRNRALMSPAGMLRGDFSLRLFNVTPQDEQKFHCLVLSRSLGFQEVLSVEVTLHVAANFSVPVVSAPHSPSQDELTFTCTSINGYPRPNVYWINKTDNSLLDQALQNDTVSLNMRGLYDVVSVLRIARTPSVNIGCCIENGGGGSGGGGSEPKSSDKTHTCPPCPAPEAEGAPSVFLFPPKPKDTLMISRTPEVTCVVVDVSHEDPEVKFNWYVDGVEVHNAKTKPREEQYNSTYRVVSVLTVLHQDWLNGKEYKCKVSNKALPAPIEKTISKAKGQPREPQVYTLPPSREEMTKNQVSLTCLVKGFYPSDIAVEWESNGQPENNYKTTPPVLDSDGSFFLYSKLTVDKSRWQQGNVFSCSVMHEALHNHYTQKSLSLSPG
B6: ICOSL ECD Truncation #4 with N52H/N57Y/Q100R/F172S, Fc fusion (Fc fusion)
chain: DTQEKEVRAMVGSDVELSCACPEGSRFDLNDVYVYWQTSESKTVVTYHIPQHSSLEYVDSRYRNRALMSPAGMLRGDFSLRLFNVTPQDEQKFHCLVLSRSLGFQEVLSVEVTLHVAANFSVPVVSAPHSPSQDELTFTCTSINGYPRPNVYWINKTDNSLLDQALQNDTVSLNMRGLYDVVSVLRIARTPSVNIGCCIENVLLQQNGGGGSGGGGSEPKSSDKTHTCPPCPAPEAEGAPSVFLFPPKPKDTLMISRTPEVTCVVVDVSHEDPEVKFNWYVDGVEVHNAKTKPREEQYNSTYRVVSVLTVLHQDWLNGKEYKCKVSNKALPAPIEKTISKAKGQPREPQVYTLPPSREEMTKNQVSLTCLVKGFYPSDIAVEWESNGQPENNYKTTPPVLDSDGSFFLYSKLTVDKSRWQQGNVFSCSVMHEALHNHYTQKSLSLSPG
B7: ICOSL ECD with N52H/N57Y/Q100R/C198R, Fc C220S/L234A/L235E/G237A (SEQ ID NO: 40) (Fc fusion, not shown: small tags and cut ends)
chain (part 1 of 2): DTQEKEVRAMVGSDVELSCACPEGSRFDLNDVYVYWQTSESKTVVTYHIPQHSSLEYVDSRYRNRALMSPAGMLRGDFSLRLFNVTPQDEQKFHCLVLSRSLGFQEVLSVEVTLHVAANFSVPVVSAPHSPSQDELTFTCTSINGYPRPNVYWINKTDNSLLDQALQNDTVFLNMRGLYDVVSVLRIARTPSVNIGCRIENVLLQQNLTVGSQTGNDIGERDKITENPVSTGEKNAAT
chain (part 2 of 2): EPKSSDKTHTCPPCPAPEAEGAPSVFLFPPKPKDTLMISRTPEVTCVVVDVSHEDPEVKFNWYVDGVEVHNAKTKPREEQYNSTYRVVSVLTVLHQDWLNGKEYKCKVSNKALPAPIEKTISKAKGQPREPQVYTLPPSREEMTKNQVSLTCLVKGFYPSDIAVEWESNGQPENNYKTTPPVLDSDGSFFLYSKLTVDKSRWQQGNVFSCSVMHEALHNHYTQKSLSLSPGK

Key:
human CD28 (human) = human CD28 (human) (UniProt P10747); experiment: flow cytometry, cells with human CD28; protein from CHO
human ICOS [1] = target: T1, human ICOS; experiment: flow cytometry, cells with human ICOS; protein from CHO
human CTLA-4 [2] = target: T2, human CTLA-4 (human, UniProt P16410 36-223); experiment: flow cytometry, cells with human CTLA-4; protein from CHO
T2 construct: whole, on cells

[3] = target: human CD28, full-length, on transfected cells (human) (UniProt P10747); experiment: flow cytometry on transfected HEK293 cells
[4] = target: CD80 (ligand of the blocking assay) (UniProt P33681); experiment: competition, flow cytometry: CD80 on CHO cells expressing CD28
[5] = target: CD86 labeled with AlexaFluor-647 (UniProt P42081); experiment: competition, flow cytometry: labelled CD86 on CHO cells expressing CD28
human CD28 [6] = target: T3, human CD28 (human, UniProt P10747 19-220); experiment: flow cytometry, cells with human CD28; protein from CHO
T3 construct: whole, on cells

human ICOS [7] = target: T1, human ICOS; experiment: flow cytometry, cells with human ICOS; protein from CHO; remark: listed apart in the source
human CD28 [8] = target: T3, human CD28; experiment: flow cytometry, cells with human CD28; protein from 293
human CD28 [9] = target: T3, human CD28; experiment: flow cytometry, cells with human CD28; protein from CHO; remark: listed apart in the source
human ICOS [10] = target: T1, human ICOS; experiment: flow cytometry, cells with human ICOS; protein from 293
human ICOS [11] = target: T1, human ICOS; experiment: flow cytometry, cells with human ICOS; protein from CHO; remark: listed apart in the source
human CTLA-4 [12] = target: T2, human CTLA-4; experiment: flow cytometry, cells with human CTLA-4; protein from CHO; remark: listed apart in the source
human CTLA-4 [13] = target: T2, human CTLA-4; experiment: flow cytometry, cells with human CTLA-4; protein from 293
human CTLA-4 [14] = target: T2, human CTLA-4; experiment: flow cytometry, cells with human CTLA-4; protein from CHO; remark: listed apart in the source
human CD28 [15] = target: T3, human CD28; experiment: flow cytometry, Expi293 cells with human CD28
Excerpt: (§1) Expi293 cells transfected with cognate binding partners, human CD28, ICOS and CTLA4, were used as target cells in binding studies.

human ICOS [16] = target: T1, human ICOS; experiment: flow cytometry, Expi293 cells with human ICOS
Description: Binding studies were carried out on transfected HEK293 cells generated to express the full-length mammalian (human) surface ligands, CD28, ICOS or CTLA-4, using a transient transfection system (Life Technologies, USA). As a control, binding to mock (non-transfected) cells also was assessed. For staining by flow cytometry, 200,000 cells of appropriate transient transfection or negative control (mock) were plated in 96 well round bottom plates, and, then incubated in staining buffer (PBS, phosphate buffered saline; 1% BSA, bovine serum albumin; and 0.1% sodium azide) for 20 minutes to block non-specific binding. Cells were resuspended in staining buffer containing 100 nM to 1 nM variant immunomodulatory protein in 50 μL. Mean Fluorescence Intensity (MFI) was calculated for each transfectant and negative parental line with Cell Quest Pro software (Becton Dickinson, USA) or a Hypercyt flow cytometer (Intellicyte, USA).
as §1

human CTLA-4 [17] = target: T2, human CTLA-4; experiment: flow cytometry, Expi293 cells with human CTLA-4
Excerpt: as §1

T2 sequence (P16410 36-223): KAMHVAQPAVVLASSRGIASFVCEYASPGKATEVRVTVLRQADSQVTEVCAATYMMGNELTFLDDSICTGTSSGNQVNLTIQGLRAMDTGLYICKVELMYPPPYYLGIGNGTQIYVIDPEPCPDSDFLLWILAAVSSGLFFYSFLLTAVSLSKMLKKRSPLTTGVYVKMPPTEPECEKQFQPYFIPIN
Sequence of CD80 (ligand of the blocking assay) (P33681 35-242 limits assumed): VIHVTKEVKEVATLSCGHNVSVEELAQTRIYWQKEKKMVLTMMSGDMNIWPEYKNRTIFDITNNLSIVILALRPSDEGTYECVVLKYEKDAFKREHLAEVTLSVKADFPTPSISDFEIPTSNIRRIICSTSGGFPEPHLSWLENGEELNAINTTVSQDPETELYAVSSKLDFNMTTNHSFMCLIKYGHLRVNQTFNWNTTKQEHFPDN
Sequence of CD86 labeled with AlexaFluor-647 (P42081 24-247 limits assumed): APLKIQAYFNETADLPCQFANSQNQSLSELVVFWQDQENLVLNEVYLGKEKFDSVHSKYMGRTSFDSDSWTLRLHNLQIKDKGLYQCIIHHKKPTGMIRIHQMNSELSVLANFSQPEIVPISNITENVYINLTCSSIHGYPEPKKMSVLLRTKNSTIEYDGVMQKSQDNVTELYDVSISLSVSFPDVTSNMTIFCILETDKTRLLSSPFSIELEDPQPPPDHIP

Molecule | MFI (ΔWT) (human CD28 [6]) | MFI (ΔWT) (human ICOS [7]) | MFI (ΔWT) (human CD28 [8]) | MFI (ΔWT) (human CD28 [9]) | MFI (ΔWT) (human ICOS [10]) | MFI (ΔWT) (human ICOS [11]) | MFI (ΔWT) (human CTLA-4 [12]) | MFI (ΔWT) (human CTLA-4 [13]) | MFI (ΔWT) (human CTLA-4 [14]) | also measured
ICOSL ECD Truncation #8 with N207G/L208G and N52H/N57Y/Q100R/C198R and Y151H (from UniProt O75144 19-224) (Fc fusion) |  |  |  |  |  |  |  |  |  | MFI (human CD28 (human)): 94200 MFI; MFI (ΔWT) (human CD28 (human)): 54.5 fold vs WT; MFI (human ICOS [1]): 143000 MFI; MFI (human CTLA-4 [2]): 368000 MFI; MFI (ΔWT) (human CTLA-4 [2]): 48.6 fold vs WT
variant ICOSL ECD-Fc M10I, S13G, N52H, N57Y, D77G, V110A, H129P, I143V, F172S, V193M, C198R (Fc fusion) |  |  |  |  |  |  |  |  |  | MFI [3]: 6000 MFI
belatacept (Fc fusion) |  |  |  |  |  |  |  |  |  | IC50 [4]: 2.5 nM; IC50 [5]: 2.8 nM
B1 | 63.9 fold vs WT | 1.4 fold vs WT | 3.6 fold vs WT | 4.1 fold vs WT | 1.4 fold vs WT | 1.1 fold vs WT | 42.6 fold vs WT | 0.7 fold vs WT | 0.7 fold vs WT | 
B2 | 49 fold vs WT | 1.2 fold vs WT | 4.7 fold vs WT | 4.9 fold vs WT | 0.8 fold vs WT | 0.7 fold vs WT | 27 fold vs WT | 0.8 fold vs WT | 0.7 fold vs WT | 
B3 |  |  |  |  |  |  |  |  |  | MFI (ΔWT) (human CD28 [15]): 12.9 fold vs WT; MFI (ΔWT) (human ICOS [16]): 1.4 fold vs WT; MFI (ΔWT) (human CTLA-4 [17]): 22.7 fold vs WT
B4 |  |  |  |  |  |  |  |  |  | MFI (ΔWT) (human CD28 [15]): 13.4 fold vs WT; MFI (ΔWT) (human ICOS [16]): 1.3 fold vs WT; MFI (ΔWT) (human CTLA-4 [17]): 17.1 fold vs WT
B5 |  |  | 3.4 fold vs WT | 3.7 fold vs WT | 0.7 fold vs WT | 0.7 fold vs WT |  | 0.8 fold vs WT | 0.7 fold vs WT | 
B6 | 39.7 fold vs WT | 1.3 fold vs WT | 4.1 fold vs WT | 3.6 fold vs WT | 0.6 fold vs WT | 0.7 fold vs WT | 49.8 fold vs WT | 0.7 fold vs WT | 0.7 fold vs WT | 
B7 |  |  |  |  |  | 0.7 fold vs WT |  | 0.7 fold vs WT | 0.7 fold vs WT | MFI (human ICOS [11]): 7700 MFI; MFI (human CTLA-4 [13]): 8720 MFI; MFI (human CTLA-4 [14]): 8750 MFI
